In the nanobody polyreactivity screen of Harvey et al. (2022):

Test: yeast display, Sf9 membrane polyspecificity reagent, FACS + sequencing; frameworks hold sequencing errors
Outline: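 Nanobodies from a synthetic yeast display library (Saccharomyces cerevisiae BJ5465), induced 36–48 hours with galactose, were stained 1 hour at 4 °C with 10% biotinylated, detergent-solubilized Sf9 membrane reagent, enriched on streptavidin microbeads, then FACS-sorted. Anti-HA (expression) and streptavidin (reagent binding) fluorescence set low and high (top ~1%) gates. Polyreactivity labels come from the gate of origin. Genes were colony-PCR amplified, MiSeq 2 × 250 sequenced and filtered by CDR length.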

Row | Sequence | polyreactivity (PSR sort gate)
1 | QVQLVESGGVLVQAGGSLRLSCAASGRIFRSYALGWYRQAPGKETEFVAAISSGGSTNYADSVKGRFTISRDNAKNTVYLQMNSLKREDTAVYYCAADLWAYTWYWHSDYWGQGTQVTVSS | low polyreactivity
2 | QVQLVESGGGLVQAGGSLRLSSAASGNIFTYNAMGWYRPARGTERELVAAISSGGSTNYADSVKGRFTISRHNAKNTVYLQLNSLKPEDTAVYYCAADLTISYSQEYYYWGQGTQETVSS | low polyreactivity
3 | QVQLVESGGGLVQAGGSLRLSGAASGFIFDQNAMGGYRQPPGKVRELVAAISKRGGSTYYADSVKGRFTISRDNAMNTVYLQMNSLKPEDTAVYYCARPRRSVNFYKYIYNYWGQGTLVTVSS | high polyreactivity
4 | QVQLVESGGGLFQAGGSLRLTCAASGFTFIKYSMGWYRQAPGKEREFVATISWNGGNTYYADSVKGRFTISRDNAKNTVYLQMNSLKPEVTAVYYCAARVKYRTRGGTVVSYDYWGQGTQVTVSS | high polyreactivity
5 | QVQLVESAGGLVQAGGSLRLICAATGRIYEIYAMGWYRQAPGTERELVATIDSGGSTNYADSVKGRFTISRDNAKNTVYLQMNSLQPEDTAVYYCAGGNPFYDSIGYDYWGQGTQVTVSS | low polyreactivity
6 | QVQLVESGGGLVQAGGSLRLSCAASGRTFSYYAMGWYRQAPGKERELVAAISSGDSTYYADSVKGRFTFSRDNAMNTVYLQMNSLKPEDTAVYYCASYPSLYYTKYDYWGQGTQVTVSS | high polyreactivity
7 | QVQLVESGGGLVQAGGSLRLSCAASGRIFHGNAMGWYRQAPGKERELVAAISRSGSRTYYADSVKGRFTISRDNAKNTVYLQMNSLKPEDTAVYYCAAVTFSYQDYYWGQVTQVTVSS | high polyreactivity
8 | QVQLVESGGGLVQAGGSLRLSCAASGSTFDVYAMGWYRQAPGKERELVAAITWIGGSTYYADSVKGRFTISRDNAKNTVYLQMNSLKPEDTAVYYCARHDYGWVDYWGQGTQVTVSS | high polyreactivity
9 | QVQLVESGGGLVQAGGRLRLSCAASGRIGPNVMGWYRQPPGKERELVAAISRRGGSTYYADSVKGRFTISRDNAKNTVYLQMNSLKPEDTAVYYCAKDLYTLAVKGGDYWGQGTQVTVSS | high polyreactivity
10 | QVQLVESGGGLVQAGGILRLSCAASGITFIRNGMGWYRQAPGKERELVAAISDTGARTYYADSVKGSFTISRDNAKNTVYLQMNSLKPVDTAVYYCAAEVRTRYLYSFRWYDYWGQGTQVTVSS | low polyreactivity
11 | QVQLVESGGGLVQAGGSLRLSCASSGITFPNYAMGWSRQAPGNERELVAAISSSGGSTYYADSVKGRFTISRDKAKNTGYLQMNSLKPEDTAVYYCATAINVYPRMDYGYWGQGTQVTVSS | low polyreactivity
12 | QLQLVESGGGLVQAGGSLRLSCAASGSIFSRYAMGWYIQAPGKEMELVAGITRGGSTNYADSVKGRFTLSRDNAKNTVYLHMNSLKPEDTAVYYCAKASRRFLTLGYDYWGQGTQVTVSS | high polyreactivity
13 | QVQLVESGGGLVQAGGSLRLSCAASGRIFYTYAMGWYRQAPGKERELVATISGRGGSTYYADSVKGRFTISRDNAKNTVYLLMNSLKPEDTAVYYCAAVSYTQSHAYWGTGYRYGYWGQGTQVTVSS | high polyreactivity
14 | QVQLVESGAGLVQAGGSLRLSCAASGRTLKTYVMGWYRQAPGKERELVAAITCGGRTYYADSVKGRFTISRDNAKNTVYLQMNSLKPEDTAVYYCNAQLYWYRYWYLFDNTSFDYWGQGTQVTVSS | low polyreactivity
15 | QVQHVESGGGLVQAGGSLRLSCAASGSILRPNVMGWYRQAPGKDRELVARISSRGVNTYYADSVKGRFTISRDNAKNTVYLQMNSLKPEDTAVYYCNARRAQYYWNRSPKYDYWGQGTQVTVSP | high polyreactivity
16 | QVQLVESGGGLVQAGGSLRLSCAASGLIFPCYDMGWYRQAPGKERELVAAISDSGANTYYADSVKGRFTISRDNAKNTVYFQMNSLKPEDTAVYYCAAESSWWYGTSFGRFDYWGQGTQVTVSS | low polyreactivity
17 | QVHLVESGGGLDQAGGSLRLSCAASGSISLIYAMGWYRQAPGKERELVAAITSSGGSTYYADSVKGRFTISRDNAKNTVYLQMNSLKREDTAVYYCAAERWTRRHYSGNDYWGQGTQVTVSS | low polyreactivity
18 | QVHLVESGGGLVQAGGSLRLSCAASGGTFSVYGMGWYRPAPGKERELVAAITVTGGRTYYADSVKGRFTISRDNAKNTVYLQMNSLKPVDSAVYYCNTLPWSRTKRDYWGQGTQVTVSS | low polyreactivity
19 | QVQLVESGGGLLQAGGSLPLSCPASGRIFYSYAMGWYRQAPGKERELVAGINWRGSNTYYADSVKGRFTISRDNAKNTVYFQMNSLKPEDTAVYYCSATYYQERRRGYWGQGSQVTVSS | high polyreactivity
20 | QVQLVESGGGLVQAGGSLRLSCAASGIIFLLYSMGWYRQAPGKERELVAAITNGGRTNYADSVKGRFTISRDNAKNTVYLQMNSLKPEDTAVYYCNAVLSVPDYTLFDYWGQGTQVTVSS | low polyreactivity
21 | QVQLVESGGGLVQAGGSLRLSCAASGRTIRGYTMGWYRQSAGTERELVATITKRGGSTTYADSVKGRFTISRDNAKNTVYLQMNSLKPEDTAVYYCNKDTITSTLTPYTSWFGYWGQGTQVTVSS | high polyreactivity
22 | QVQLVESGGGLVQAGGSLRLSCAASGSIFSAYVMGWYRQAPGKERELVAAITRSGGSTYYADSVKGRFTISRDNAKNTVYLQMNSLKPEDTAVYYCAVDYLLHYYSYIEDYWGQGTQVTVSS | low polyreactivity

Row | Sequence | polyreactivity (PSR sort gate)
23 | QVQLVESGGGLVQAGGSHRLSCAASGRIFEDYAMGWYRQAPGKERELVARISSGDSTNYADSVNGRFTLSRDNAKNTVYLQMNSLKPEDTAVYYCAAEGGVQEFDYWGQGTQVTVSS | low polyreactivity
24 | QVQLVESGGGLVQAGGSLRLSCAASGSTFGPYAMGWYRQAPGKERELVATIRGSGATTYYADSVKGRFTISRDNAKNTVYLQMHSLKPEDTAVYYCATAYFSGWYNRYGRATSYDYWGQGTQVTVSS | high polyreactivity
25 | QVQLVESGGGLVQAGGSLRLSCAASGFTFDKNAMGWYRQAPGKERELVAAITKSGGSTYYADSVKGRFTISRDNAKNTVYLQMNSLKPEETAVYYCNAPPWSRYYYDLLRHDYWGQGTQVTVSS | low polyreactivity
26 | QVQLVESGGGLVQAGGSLRLSCAASGYTFDTNALGWYRLAPGTEREFVAAISSTGGTYYADSVKGRFTISRDNAKNTVYLQMNSLKPEDTAVYYCAATFIQVVVIVQLYDYDYWRQGTQVTVSS | low polyreactivity
27 | QVQLVESGGGLVQAGGSLRLSCAASGSTLIGYAMGWYRQAPGKERELVAVINRSGGRTYYADSVKGRFTISRDNSKNTVYLQMNSLKPEDTAVYYCAARPTALSYDSWGQGTQVTVSS | high polyreactivity
28 | QVQLVESGGGLVQAGGSLRLSCAASGRSFRRYAMGWYRQAPVKDRELVATNTSNGGSTYYADSVKGRFTISRDNAMHTVDFQLNSLKPEDTAVYYCARDLTYYRSRYDYWGQGTQVTVSS | high polyreactivity
29 | QVQLVESGGGLVQAGGSLRLSCAASGSIFKGYAMGWSRQAPGKERELVASITSSGGSTYYADSVKGRFTISRDNAKNTVYLQMNCLKPEDTAVYYCATDHDSVRVLVSSTSDYDYWGQGTQVTVSS | low polyreactivity
30 | QVQLVESGGGLVQAGGSLRLSCAASGSIFSQYAMGWYRQAPGKERELVAAISRSGGTTYYADSVKGRFTISRDNAKNTVYLQMNSLKPEDTAVYYCAADLKARRGSYDRFYYWGQGTQVTVSS | high polyreactivity
31 | QVQLVESGGGLVQAGGSLRLSCAASGSIFWYYAMGWYRQAPGKERELVAAISSGGSTYYADSVKGRFTISRDNAKNTVYLQMNSLKPEDTAVYYCAAGAFGQILNYWGQGTQVTVSS | high polyreactivity
32 | QVQHVESGGGLVQAGGSLRLSCAASRSTFYYYAMGWYRQAPGKERELVAAISRGGGSTYYADSVKGRFTISRDNAKNTVYLQMNSLKPEDTADDYCAARRVGGGFYTWRNPAYEYWGQGTQVTVSS | high polyreactivity
33 | QVQLVESGGGLVQAGGSLRLSCAASGSIFVHNAMGWSRQAPGKERELVAAITRGGSTYYADSVKGRFTISRDNAKNTVYLQMNSLKPEDTAVYYCAALAAWRWDLYDYWGQGTQVTVSS | low polyreactivity
34 | QVQLVESGGGLVQAGGSLRLSCAASGSTFVINAMGWYRQAPGKERELVAAISYDGGGTYYADSVKGRFTISRDNAKNTVYLQMNSLKPEDTAGYYCAAENFYPYTYYASDYWGQGTHVTVSS | high polyreactivity
35 | QFQLVESGGGLVQAGGSLRLSCAASGRIVGRNAMGWYRQAPGKERELVAAISGNGGSTYYADSVKGRFTISRDNAKINVYLQMNSLKPEDTAVYYCATKYFSRMDYWGKGTQVTVSS | high polyreactivity
36 | QVQLVESGGGLVQAGGSLRLSCAASGFTFYTYAMGWYRQPPGKERELVAAISRRGGSTYYADSVKGRFTISRDNAKNTVYLQMNSLKPEDTAVYYFNAVADSYSGFDGYYYWGQGTQVTVSS | high polyreactivity
37 | QVQLVESGGGLVQAGGSLRLICAASGRIFGDNAMGWYRQAPGKERELVAGIRWRADRTYYADSVKGRFTISRDNAKNTFYLQMNSLKPEDTAVYYCAARGGGYYDFDYWGQGTQVTVSS | low polyreactivity
38 | QVQLVESGGGLVQAGGRLRLSCAASGSTLDTYAMGWYRQAPGKERELVAGITWSGGSTYYADSVKGRFTISRDNAKNTVYLQMNSLKPEDTAVYYCAAYSPYGPRYDYWGQGTQVTVSS | low polyreactivity
39 | QVQLVESGGGLVQAGGSLRLSFASSGSTFYYNAMGWYRQAPGKERDLVARISRSGGSTYADSVKGRFTISRDNAKNTVYFQMNSLKPEDTAVSYCNADAYGTPEFTSYAVRYDYGGQGTQVTVSS | low polyreactivity
40 | QVQLVESGGGLGQAGGSLRLSCAASGRIFRYNAMGWYRQAPGKDRELVAVITSRGGRTYYADSVKGRFTLSRDNAKNTVYLQMTSLKPEDSAVYYCTATYSGRGSTYWSGYDYWGQGTQVTVSS | high polyreactivity
41 | QVQLVESGGGLVQAGGSLRLSCASSGFTFARYAMGWYRPAPGKEREFVAAIDKSGGSTYYADSVTGRFTISRDNAKNTVYLQMNSLKPEDTAVYYCAAGFGRVFSSIYGYWGQGTQVTVSS | high polyreactivity
42 | QVQLVQSGGGLVQAGGSLRLSCAASGITFIHNAMGWYRQAPGKERELVAAITTSDGSTYYADSVKGRFTISRDNAKYTVYFQMNSLTPEDTAVYYCAARGRHSGYYSFPYYYWGQGTQVTVSS | low polyreactivity
43 | HVQRVESGGGLVQAGASLRLSCAASGGIFSYNAMGWYRQAPGKERELVAAISGTGGSTYYADSVKGRFTISRDNAMNTVYLQMNSLKPEDTAVYYCAADVEYKVFPGDYWGQGPQVTVSS | low polyreactivity
